Results reported in paper PMC7380208.

Target: Recombinant SARS-CoV-2 spike protein ectodomain, native glycosylation (SARS-CoV-2) (UniProt P0DTC2)
Assay: ELISA

Flt3 Receptor Interacting Lectin (FRIL) from Lablab purpureus (from UniProt Q9ZTA9) (natural protein)
lowest FRIL concentration at which binding was seen: 10 ng/mL
